{"source": "patent US20250382602", "key": {"[1]": {"target": "T1, Dda 1993 K358E K358E (Enterobacteria phage T4) (UniProt P32270)", "T1 sequence": "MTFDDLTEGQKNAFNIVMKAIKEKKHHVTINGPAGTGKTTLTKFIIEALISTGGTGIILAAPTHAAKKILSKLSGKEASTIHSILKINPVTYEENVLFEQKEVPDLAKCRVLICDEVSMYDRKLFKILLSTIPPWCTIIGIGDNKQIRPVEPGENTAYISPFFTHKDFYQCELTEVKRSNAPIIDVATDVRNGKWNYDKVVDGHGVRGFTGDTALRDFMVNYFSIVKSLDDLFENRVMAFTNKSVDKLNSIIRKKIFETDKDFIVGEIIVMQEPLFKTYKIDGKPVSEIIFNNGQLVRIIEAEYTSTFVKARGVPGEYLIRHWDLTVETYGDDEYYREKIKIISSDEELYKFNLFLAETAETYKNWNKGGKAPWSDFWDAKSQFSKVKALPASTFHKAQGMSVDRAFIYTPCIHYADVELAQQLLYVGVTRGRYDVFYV", "settings": "nanopore translocation, FLO-MIN106; background mutations not given"}, "[2]": {"target": "T2, Dda 1993 K358I K358I (Enterobacteria phage T4) (UniProt P32270)", "T2 sequence": "T1 sequence with E358I", "settings": "nanopore translocation, FLO-MIN106; background mutations not given"}, "[3]": {"target": "T3, Dda 1993 K358L K358L (Enterobacteria phage T4) (UniProt P32270)", "T3 sequence": "T1 sequence with E358L", "settings": "nanopore translocation, FLO-MIN106; background mutations not given"}, "[4]": {"target": "T4, Dda 1993 K358M K358M (Enterobacteria phage T4) (UniProt P32270)", "T4 sequence": "T1 sequence with E358M", "settings": "nanopore translocation, FLO-MIN106; background mutations not given"}, "[5]": {"target": "T5, Dda 1993 T156F T156F (Enterobacteria phage T4) (UniProt P32270)", "T5 sequence": "T1 sequence with T156F, E358K", "settings": "nanopore translocation, PromethION; background mutations not given"}}, "note": "Residue numbers refer to the chain shown, from its start."}
{"substance": "barcoded 3.6 kb DNA analyte ligated to sequencing Y adaptor", "values": [{"measurement": "activity (bps speed delta vs control)", "setting": "[1]", "value": -53.9}, {"measurement": "activity (bps speed delta vs control)", "setting": "[2]", "value": -40.2}, {"measurement": "activity (bps speed delta vs control)", "setting": "[3]", "value": -42.7}, {"measurement": "activity (bps speed delta vs control)", "setting": "[4]", "value": -48.6}, {"measurement": "activity (bps speed delta vs control)", "setting": "[5]", "value": 13.8}]}
